Test results reported in US20210061922A1 (published 2021).

Target: CD16a (UniProt P08637 17-208)
Experiment: SPR

Chain of CD16a (P08637 17-208): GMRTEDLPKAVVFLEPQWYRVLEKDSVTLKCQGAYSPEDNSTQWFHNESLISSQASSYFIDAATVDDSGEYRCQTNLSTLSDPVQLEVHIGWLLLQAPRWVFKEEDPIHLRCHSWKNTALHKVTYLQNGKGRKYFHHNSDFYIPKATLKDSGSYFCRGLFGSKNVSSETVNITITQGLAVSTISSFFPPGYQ

- Kd: 2.6 nM
B1: Anti-CD16 nanobody (VHH)
VHH: EVQLTESGGEDVQAGGSLRLSCSASGLTFSSYNMGWFRRAPGKEREFVASITWSGRDTFYADSVKGRFTISRDNAKNTVYLQMSSLKPEDTATYYCAANPWPVAAPRSGTYWGEGTQVTV
